What is called Kd is a measure of binding affinity in units of concentration.

Experimental findings from patent US20150132277A1 (Scripps Research, published 2015) are described below.

The labels stand for the following.
B5: VE-Cadherin extracellular domain EC1 (residues 48-155 of full-length VE-Cadherin), tag-free (other)
chain: DWIWNQMHIDEEKNTSLPHHVGKIKSSVSRKNAKYLLKGEYVGKVFRVDAETGDVFAIERLDRENISEYHLTAVIVDKDTGENLETPSSFTIKVHDVNDNWPVFTHRL
notes: Expressed as a GST fusion; also called VE-EC1; VE-Cadherin EC1 domain
B6: human T2-WRS (residues 94-471 of full-length tryptophanyl-tRNA synthetase) with C-terminal His6 tag (enzyme)
chain: SAKGIDYDKLIVRFGSSKIDKELINRIERATGQRPHHFLRRGIFFSHRDMNQVLDAYENKKPFYLYTGRGPSSEAMHVGHLIPFIFTKWLQDVFNVPLVIQMTDDEKYLWKDLTLDQAYSYAVENAKDIIACGFDINKTFIFSDLDYMGMSSGFYKNVVKIQKHVTFNQVKGIFGFTDSDCIGKISFPAIQAAPSFSNSFPQIFRDRTDIQCLIPCAIDQDPYFRMTRDVAPRIGYPKPALLHSTFFPALQGAQTKMSASDPNSSIFLTDTAKQIKTKVNKHAFSGGRDTIEEHRQFGGNCDVDVSFMYLTFFLEDDDKLEQIRKDYTSGAMLTGELKKALIEVLQPLIAEHQARRKEVTDEIVKEFMTPRKLSFDFQHHHHHH
notes: In monomer-dimer equilibrium; also called WT T2-WRS; WT T2-TrpRS

Data set [1] concerns the molecule itself. The experiment in a line: gel filtration chromatography as a function of protein concentration; dimer-monomer equilibrium. In general terms: SEC sorts molecules by how far they enter the pores of the column.
Protocol: (§1) Each protein sample (200 μl of 20 μM) was injected to Superdex 200 chromatography column (GE Healthcare, 10/300GL) in PBS containing 5 mM β-mercaptoethanol. The column was then calibrated by standard proteins. […] To determine the dissociation constant for dimer-monomer equilibrium, gel chromatography was carried out as a function of protein concentration.
Data set [2] deals with the molecule itself. The data set is described as follows: gel chromatography with immunoblotting of fractions (YRS polyclonal antibody); dimer-monomer equilibrium. A general note: In western blotting, separated proteins are transferred to a membrane and probed.
Protocol: as §1
Data set [3] concerns the molecule itself. The data set is described as follows: gel chromatography; dimer-monomer equilibrium, reference Δ159-161 mini-YRS.
Protocol: as §1
Data set [4] concerns the molecule itself. The data set is described as follows: disulfide crosslinking across the dimer interface, SDS-PAGE with and without DTT.
Protocol: All proteins were expressed and purified as mentioned above, except that no beta-mercaptoethanol was added. The purified proteins were diluted to 1 mg/ml in 25 mM HEPES (pH7.5, 150 mM NaCl) and incubated for 15 minutes at 4° C. with or without 10 mM DTT (dithiothreitol). Proteins samples (10 μl) were mixed with an equal amount of 2× loading buffer (without reducing reagent) and boiled for 1 min before loading onto a SDS-PAGE gel.
In data set [5] the target is B5. The data set is described as follows: SPR (Biacore), T2-WRS variant amine-coupled to CM5 chip, EC1 domain in flow, 0.1 mM ZnCl2, kinetic titration fitting; monomer F260EY201EI278E T2-WRS on the chip, EC1 in flow. A general note: Surface plasmon resonance follows binding to a sensor surface in real time, without labels.
Data set [6] concerns the target B6. The experiment in a line: SPR (Biacore), T2-WRS amine-coupled to CM5 chip, EC1 domain in flow, 0.1 mM ZnCl2, kinetic titration fitting; WT T2-WRS on the chip, EC1 in flow.
Data set [7] deals with the molecule itself. The data set is described as follows: size exclusion chromatography, percent dimer plotted against protein concentration; dimer-monomer dissociation constant.
Data set [8] deals with the molecule itself. The data set is described as follows: size exclusion chromatography, 100 nM to 10 uM; percentage of dimers against concentration; dimer-monomer dissociation constant.
Data set [9] concerns the molecule itself. The data set is described as follows: Superdex 200 gel filtration, 0.5-2 µM, self-association.
Protocol: E. coli Flavodoxin was inserted at the position of G310 on the peripheral region of the KRS dimer interface. The linker was kept short to reduce the potential structural flexibility. […] All proteins were loaded at a concentration range of 0.5-2 μM. […] BSA is bovine serum albumin.
The peak fractions were analyzed by SDS-PAGE and visualized by Coomassie blue staining.

B1: non-associating monomeric Δ159-161 variant of mini-YRS (enzyme)
chain: MGDAPSPEEKLHLITRNLQEVLGEEKLKEILKERELKIYWGTATTGKPHVAYFVPMSKIADFLKAGCEVTILFADLHAYLDNMKAPWELLELRVSYYENVIKAMLESIGVPLEKLKFIKGTDYQLSKEYTLDVYRLSSVVTQHDSKKAGAEVVKQVEHSGLLYPGLQALDEEYLKVDAQFGGIDQRKIFTFAEKYLPALGYSKRVHLMNPMVPGLTGSKMSSSEEESKIDLLDRKEDVKKKLKKAFCEPGNVENNGVLSFIKHVLFPLKSEFVILRDEKWGGNKTYTAYVDLEKDFAAEVVHPGDLKNSVEVALNKLLDPIREKFNTPALKKLASAAYPDPSKQKPMAKGPAKNSEPEEVI
notes: also called the monomer
On to B1, for which the Kd in data set [1] was ~100000 nM.

B2: wild-type (WT) human mini-YRS (N-terminal fragment of human tyrosyl-tRNA synthetase) (enzyme)
chain: MGDAPSPEEKLHLITRNLQEVLGEEKLKEILKERELKIYWGTATTGKPHVAYFVPMSKIADFLKAGCEVTILFADLHAYLDNMKAPWELLELRVSYYENVIKAMLESIGVPLEKLKFIKGTDYQLSKEYTLDVYRLSSVVTQHDSKKAGAEVVKQVEHPLLSGLLYPGLQALDEEYLKVDAQFGGIDQRKIFTFAEKYLPALGYSKRVHLMNPMVPGLTGSKMSSSEEESKIDLLDRKEDVKKKLKKAFCEPGNVENNGVLSFIKHVLFPLKSEFVILRDEKWGGNKTYTAYVDLEKDFAAEVVHPGDLKNSVEVALNKLLDPIREKFNTPALKKLASAAYPDPSKQKPMAKGPAKNSEPEEVI
notes: In monomer-dimer equilibrium; also called WT mini-YRS; mini-tyrosyl tRNA synthetase
In the case of B2, the Kd in [2] is ~100 nM. Also, the “fold lower dimer-monomer dissociation constant than Δ159-161” value in data set [3] was ~1000 fold.

B3: native human KRS (70-584) with T285C mutation (enzyme)
chain: not shown
modifications: disulfide between Cys 285 of the two subunits in the absence of DTT
notes: also called native KRST285C
As to B3, the binding result in [4] is reported as “binds”.

B4: F260EY201EI278E T2-WRS variant (stable monomer) (enzyme)
chain: SAKGIDYDKLIVRFGSSKIDKELINRIERATGQRPHHFLRRGIFFSHRDMNQVLDAYENKKPFYLYTGRGPSSEAMHVGHLIPFIFTKWLQDVFNVPLVIQMTDDEKELWKDLTLDQAYSYAVENAKDIIACGFDINKTFIFSDLDYMGMSSGFYKNVVKIQKHVTENQVKGIFGFTDSDCIGKESFPAIQAAPSFSNSFPQIFRDRTDIQCLIPCAIDQDPYFRMTRDVAPRIGYPKPALLHSTFFPALQGAQTKMSASDPNSSIFLTDTAKQIKTKVNKHAFSGGRDTIEEHRQFGGNCDVDVSFMYLTFFLEDDDKLEQIRKDYTSGAMLTGELKKALIEVLQPLIAEHQARRKEVTDEIVKEFMTPRKLSFDFQHHHHHH
notes: Residue numbers of the mutations are those of full-length WRS; also called monomer T2-WRS; T2-WRS (F260EY201EI278E)
On to B4, for which, in data set [5], the Kd was determined as 1340 nM.
Consider B5, for which the Kd in data set [6] amounted to 1520 nM.
With B6, the results for the Kd in data set [7] and in data set [8] were 472 nM and 437 nM, respectively.

B7: Flavo-KRS (70-584) with T285C mutation (enzyme)
chain: SVDPNQYYKIRSQAIHQLKVNGEDPYPHKFHVDISLTDFIQKYSHLQPGDHLTDITLKVAGRIHAKRASGGKLIFYDLRGEGVKLQVMANSRNYKSEEEFIHINNKLRRGDIIGVQGNPGKTKKGELSIIPYEITLLSPCLHMLPHLHFGLKDKETRYRQRYLDLILNDFVRQKFIIRSKIITYIRSFLDELGFLEIETPMMNIIPGGAVAKPFICYHNELDMNLYMRIAPELYHKMLVVGNMGLFYGSSTCYTEMAAEKIRDIIGPELVTLHNLKDDSPKLMEQYDVLILGIPTWDFGEIQEDWEAVWDQLDDLNLEGKIVALYGLGDQLGYGEWFLDALGMLHDKLSTKGVKFVGYWPTEGYEFTSPKPVIADGQLFVGLALDETNQYDLSDERIQSWCEQILNEMARVYEIGRQFRNEGIDLTHNPEFTTCEFYMAYADYHDLMEITEKMVSGMVKHITGSYKVTYHPDGPEGQAYDVDFTPPFRRINMVEELEKALGMKLPETNLFETEETRKILDDICVAKAVECPPPRTTARLLDKLVGEFLEVTCINPTFICDHPQIMSPLAKWHRSKEGLTERFELFVMKKEICNAYTELNDPMRQRQLFEEQAKAKAAGDDEAMFIDENFCTALEYGLPPTAGWGMGIDRVAMFLTDSNNIKEVLLFPAMKPEDKKENVATAGHHHHHH
notes: also called T285C Flavo-KRS
Turning to B7, the binding result in data set [4] was “no binding”.

B8: truncated human KRS (residues 70-584 of full-length lysyl-tRNA synthetase) with C-terminal 6xHis tag (enzyme)
chain: not shown
notes: Homodimer (alpha2) in solution; also called native human KRS (70-584); native KRS
B8: in data set [9], the binding result is reported as “binds”.
